Substrate: CCCCCCCC/C=C\CCCCCCCC(=O)OCC(O)CO
Test: glycerol release, enzymatic glycerol kit, saturation curve
Assay type: biochemical, Saccharomyces cerevisiae
Details: pH 7.5, 37 °C, 20 min, substrate complexed to defatted BSA 1:1

B1: Yju3p (Saccharomyces cerevisiae S288C) (protein)
chain: MAPYPYKVQTTVPELQYENFDGAKFGYMFWPVQNGTNEVRGRVLLIHGFGEYTKIQFRLMDHLSLNGYESFTFDQRGAGVTSPGRSKGVTDEYHVFNDLEHFVEKNLSECKAKGIPLFMWGHSMGGGICLNYACQGKHKNEISGYIGSGPLIILHPHTMYNKPTQIIAPLLAKFLPRVRIDTGLDLKGITSDKAYRAFLGSDPMSVPLYGSFRQIHDFMQRGAKLYKNENNYIQKNFAKDKPVIIMHGQDDTINDPKGSEKFIQDCPSADKELKLYPGARHSIFSLETDKVFNTVFNDMKQWLDKHTTTEAKP
Km: 260 µM
